According to patent publication US7629135B2, “Toll-like receptor agonists and antagonists and methods of use thereof” (The Board of Trustees of the University of Illinois, priority 2006, dated 2009):

How the values were obtained:
C57BL/6 mice [1] = experiment: SAA-induced neutrophilia in mice; assay type: in vivo, mouse
Method: (§1) SAA stimulates neutrophilia through G-CSF: To investigate whether SAA-induced G-CSF secretion contributes to neutrophilia, in vivo studies were conducted with daily administration of SAA in mice. C57BL/6 mice were injected subcutaneously (s.c.) with a daily dose of 120 μg SAA/kg body weight (˜3 μg of SAA each mouse) for 7 consecutive days. At different time points after the injection was initiated, blood neutrophil numbers were determined and the results were compared to neutrophil numbers prior to SAA administration. […] To establish a causal relationship between SAA-induced G-CSF production and neutrophilia in mice, wild-type C57BL/6 mice wre compared with csf3^−/− mice for changes in neutrophil count.
SAA-induced neutrophilia: For analysis of SAA-induced neutrophil increase, SAA was injected subcutaneously into both G-CSF deficient (csf3^−/−) (n=5) and csf3^+/+ (n=5), age- and sex-matched littermates (8-9 weeks, male), at doses of 120 μg/kg/d in 200 μl PBS. SAA was administered daily for 7 consecutive days (168 h). Blood samples were collected before and at 48, 120, and 168 h after the initial SAA injection. Age and sex-matched mice of both tlr2^−/− (n=7) and C57BL/6 (n=7) were also used for this experiment. Blood was collected by eye puncture using heparinized capillaries and placed into EDTA-treated tubes. Total white blood cell (WBC) count and WBC differential count were determined using a Hemavet 950FS multispecies hematology analyzer (Drew Scientific).

C57BL/6 mice [2] = experiment: Plasma G-CSF in SAA-injected mice (ELISA); assay type: in vivo, mouse
Method: as §1
Measurement of G-CSF expression: To measure the secreted G-CSF from human monocytes and mouse macrophages in vitro, cells were placed in serum-free DMEM medium and stimulated with the indicated ligands. Cell-free supernatants were collected by centrifugation at 1,000×g for 30 sec and assayed for human or mouse G-CSF using ELISA. Human PBMC were used as 2×10^6 cells/ml/sample, and mouse BMDM were seeded at 10^6 cells/ml and used as 0.5 ml/sample. To measure mouse plasma G-CSF, blood samples were collected and centrifuged at 1,000-2,000×g for 10 min at 4° C. Plasma samples were appropriately diluted and then checked for G-CSF concentration using ELISA. […] Real-time quantitative PCR was performed on a ABI PRISM 7000 Sequence Detection System (Applied Biosystems) as described previously (He et al., 2006). All data were analyzed with the ABI PRISM 7000 SDS software (version 1.1). Relative level of mRNA for G-CSF was determined by normalizing with β-actin mRNA level. […]
SAA-induced neutrophilia: For analysis of SAA-induced neutrophil increase, SAA was injected subcutaneously into both G-CSF deficient (csf3^−/−) (n=5) and csf3^+/+ (n=5), age- and sex-matched littermates (8-9 weeks, male), at doses of 120 μg/kg/d in 200 μl PBS. […] Total white blood cell (WBC) count and WBC differential count were determined using a Hemavet 950FS multispecies hematology analyzer (Drew Scientific).

TLR2:Fc fusion protein = biological target: T1, TLR2:Fc fusion protein (Homo sapiens, UniProt O60603); experiment: SAA-TLR2 interaction, ELISA-like binding assay; settings: 0.0625 to 8 μg/ml ligand coated, 2 μg/ml TLR2:Fc
T1 construct: measured in an ELISA-like assay using a TLR2 extracellular domain:Fc fragment fusion protein; made in house; host or cells: CHO cells (pFuse-Fc vector, InvivoGen), purified from culture supernatant on protein A
T1 sequence (O60603 21-588 limits assumed): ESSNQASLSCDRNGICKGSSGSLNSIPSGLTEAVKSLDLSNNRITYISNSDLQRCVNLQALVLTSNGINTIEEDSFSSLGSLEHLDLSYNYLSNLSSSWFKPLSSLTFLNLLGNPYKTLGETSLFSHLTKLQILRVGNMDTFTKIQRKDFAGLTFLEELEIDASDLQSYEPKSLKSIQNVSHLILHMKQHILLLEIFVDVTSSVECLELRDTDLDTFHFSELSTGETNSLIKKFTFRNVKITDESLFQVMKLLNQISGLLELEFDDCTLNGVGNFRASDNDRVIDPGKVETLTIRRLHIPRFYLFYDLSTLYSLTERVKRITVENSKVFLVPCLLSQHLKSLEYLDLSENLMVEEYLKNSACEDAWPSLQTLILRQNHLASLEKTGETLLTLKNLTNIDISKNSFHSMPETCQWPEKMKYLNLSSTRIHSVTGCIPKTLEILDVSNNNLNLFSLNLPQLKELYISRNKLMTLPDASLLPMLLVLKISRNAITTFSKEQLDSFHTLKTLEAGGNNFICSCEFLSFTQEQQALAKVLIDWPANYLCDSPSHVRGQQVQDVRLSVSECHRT
From the text: Another example of a method for screening antagonists that disrupt the SAA/TLR2 interaction involves a binding assay that includes a TLR2 ectodomain (extracellular domain) fused to an Fc fragment of immunoglobulin (TLR2:Fc), such as the assay used in FIG. 9B. This assay is typically used as a follow-up or secondary assay to that assay described above. In other words, any compounds collected from the assay described above are subjected to the TLR2:Fc-based binding assay to confirm that the antagonistic effect is on the disruption of SAA-TLR2 binding. This method is generally carried out as follows and is also described in the Examples. A TLR2:Fc fusion protein is generated such that the N-terminal 588 amino acids of human TLR2 are fused in frame to the Fc portion of mouse IgG2a. The cDNA encoding for the resulting chimeric protein is cloned in pFuse-Fc vector (InvivoGen), and stably transfected into CHO cells. […] Absorbance at 450 nm is measured on a SpectraMax 340 plate reader (Molecular Devices).
Assays for SAA-TLR2 interaction: The TL2:Fc fusion protein was generated such that the N-terminal 588 amino acids of human TLR2 protein were fused in frame with the Fc portion of mouse IgG2a. […] Absorbance at 450 nm was measured on a SpectraMax 340 plate reader (Molecular Devices). […]

binding to TLR2:Fc fusion protein (TLR2:Fc fusion protein): dose-dependent increase in SAA binding
B1: SAA: Recombinant human SAA purchased from PeproTech; major acute-phase protein of 104 amino acids (protein, UniProt P0DJI8 19-122, looked up)
Serum amyloid A-1 protein: RSFFSFLGEAFDGARDMWRAYSDMREANYIGSDKYFHARGNYDAAKRGPGGAWAAEVITDARENIQRFFGHGAEDSLADQAANEWGRSGKDPNHFRPAGLPEKY
peripheral blood neutrophil numbers (C57BL/6 mice [1]; C57BL/6 mice, SAA 120 μg/kg s.c. daily for 7 days, vs PBS, from 48 h): significant rise of neutrophil numbers | SAA-stimulated increase in peripheral blood neutrophils in tlr2−/− mice vs wild-type (C57BL/6 mice [1]; SAA s.c. up to 7 days): significantly lower | peripheral blood neutrophil count response in csf3−/− mice vs wild-type (C57BL/6 mice [1]; csf3−/− mice, SAA 120 μg/kg/d s.c., 48, 120 and 168 h): significantly reduced response | plasma G-CSF level (C57BL/6 mice [2]; C57BL/6 mice, SAA 120 μg/kg s.c. daily, end of 7 days): significantly elevated G-CSF level | plasma G-CSF in tlr2−/− mice vs wild-type (C57BL/6 mice [2]; SAA s.c. up to 7 days, 168 h): significantly less G-CSF | plasma concentration of G-CSF, maximum (C57BL/6 mice [2]; SAA-injected C57BL/6 mice, 168 h): 97 pg/mL
